Source: the nanobody polyreactivity screen of Harvey et al. (2022)

Experiment: yeast display, Sf9 membrane polyspecificity reagent, FACS + sequencing; frameworks hold sequencing errors
How it was run: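 A nanobody's polyreactivity label depends on the gate it was sorted from. Yeast display cells were stained with 10% biotinylated, detergent-solubilized Sf9 membrane reagent for 1 hour at 4 °C, enriched on streptavidin microbeads and sorted by FACS. The low and high (top ~1%) gates were set on anti-HA fluorescence for expression and streptavidin fluorescence for reagent binding.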

Sequence | polyreactivity (PSR sort gate)
QVQLVESGGGLVQAGGSLRLSCAASGLTFQSYAMGRYRQAPVKERELVATISNGSSTYYADSVKGRFTFSRDNAKNTVYLQMNSLKPEDTAVYFCAKDYYYSRNPLYGHDYWGHGTQVTVSS | low polyreactivity
QVQLVESGGGLVQAGGSLRLSCAASGLTFQSYAMGWYRQAPGKEMELVATIYNGSSTYYAVSVKGRFTISRDNAKNTDYLQMNSLKPEDTAVYYCAKDYYYSRNALYGHDYWGQVTQVTVSS | low polyreactivity
QVQLVESGGGLVQAGGSLRLSCAASGLTFQTNAMGWYRQAPGKERELVAAISRRGSSTYYADSVKGRFTISRDNAKNTVYLQMNSLKPEDTAVYYCNAVRYLFIYPRYDYWGQGTQVTVAS | high polyreactivity
QVQLVESGGGLVQAGGSLRLSCAASGLTFRAYAMGWYRQAPGKERELVAAITWSGGSTYYADSVKGRFTISRDNAKNTVYLQMNSLKPEDTAVYYCTAVLRAGYWYYSHGYDYWGQGTQVTVSS | low polyreactivity
QVQLVESGGGLVQAGGSLRLSCAASGLTFRKYAMGWYRQAPGKERELVAAITRGGSTNYADSVKGRFTISRDNAKNTVYLQMNSLKPEDTAVYYCNTRPYRPFDYWGQGTQVTVSS | high polyreactivity
QVQLVESGGGLVQAGGSLRLSCAASGLTFRLNAMGWYRQAPGKERELVAAITRGGRTNYADSVKGRFTISRDNAKNTVYLQMNSLKPEDTAVYYCAARYVERHTDYYYWGQGTQVTVSS | low polyreactivity
QVQLVESGGGLVQAGGSLRLSCAASGLTFRRNAMGWYRQAPGKERELVAAISSGGVRTYYADSVKGRFTISRDNAKNTVYLQMNSLKPEDTAVYYCAAEDYAQRYTHYESWGQGTQVTVSS | low polyreactivity
QVQLVESGGGLVQAGGSLRLSCAASGLTFRYYAMGWYRQAPGKERELVAAISSRGASTYYADSVKGRFTISRDNAKNTVYLQMNSLKPEDTAVYYCAVRTYVYHWSFSSLPYDYWGQGTQVTVSS | high polyreactivity
QVQLVESGGGLVQAGGSLRLSCAASGLTFRYYAMGWYRQAPGKERELVAAISWSGGSTYYADSVKGRFTISRDNAKNTVYLQMNSLKPEDTAVYFCNAELYPQWYDSGQTMEYWGQGTQVTVSS | high polyreactivity
QVQLVESGGGLVQAGGSLRLSCAASGLTFSDNAMGWYRQAPGKEREFVAAITRNGGSTRYADSVKGRFTISRDNAKNTVYLQMNSLKPEDTAVYYCAAVPVGYDSDWGYYYWGQGTQVTVSS | low polyreactivity
QVQLVESGGGLVQAGGSLRLSCAASGLTFSDYAMGWYRQAPGKEREFVAALTRNGGSTRYADSVKGRFTISRDNAKNTVYLQMNSLKPEDTAVYYCNADGWGDRFWSNFRFDYWGQGTQVTVSS | low polyreactivity
QVQLVESGGGLVQAGGSLRLSCAASGLTFSLYAMGWYRQAPGKERELVAAISSSGSTYYADSVKGRFTISRDNAKNTVYLQMNSLKPEDTAVYYCAADAPWWIDPIAGNYWGQGTQVTVSS | high polyreactivity
QVQLVESGGGLVQAGGSLRLSCAASGLTFSRYAKGRYRQAPGKERELVAAISSSGTRTYYADSVKGRFTISRDNAKITVYLQMNSLKPEDTAVYYCAARSGGSGGTYGYWGHGTQVTVSS | high polyreactivity
QVQLVESGGGLVQAGGSLRLSCAASGLTFSRYAMGWYRQAPGTERELVAVISRSGGSTYYADSVKGRFTISRDNAKNTVYLQMNSLIPEDTAVYYCAVRAYIKMDYWGQGTQVTVSS | high polyreactivity
QVQLVESGGGLVQAGGSLRLSCAASGLTFSTYAMGWYRQAPGKERELVATITYSGSSTYADSVKGRFTIARDNAKNTVYLQMNSLKPEDTAVYFCAAVTYHGNPSEYFPDTVGFYYWGQGTQVTVSS | low polyreactivity
QVQLVESGGGLVQAGGSLRLSCAASGLTFSVYAMGWYRPAPGKERELVAAISGSGGSTYYADSVKGRFTISRDNAKNTVYLQMNSLKPEDTAVYYCAARYDVHYDGMDYWGQGTQVTLSS | low polyreactivity
